Data reported in US20190233517A1.
Each block holds one substance with its values, some of them ahead of it.

Key:
Daudi = assay: FACS binding; Daudi cells
HER3 = HER3 (UniProt P21860); assay: kinetic binding data, method not stated
Raji (human) = Raji (human) (UniProt P11836); assay: FACS binding; Raji cells
Raji (human), sequence (P11836 whole entry): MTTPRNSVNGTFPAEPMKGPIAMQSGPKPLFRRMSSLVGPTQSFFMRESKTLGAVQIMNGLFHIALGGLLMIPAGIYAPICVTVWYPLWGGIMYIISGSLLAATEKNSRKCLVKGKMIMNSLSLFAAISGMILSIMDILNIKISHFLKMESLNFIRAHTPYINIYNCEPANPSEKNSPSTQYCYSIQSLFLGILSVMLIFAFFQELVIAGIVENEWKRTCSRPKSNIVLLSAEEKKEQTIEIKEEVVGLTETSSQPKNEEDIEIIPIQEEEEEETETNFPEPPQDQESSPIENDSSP

EC50 (Daudi): 6.98 nM
Substance: Epratuzumab/ Ofatumumab (1:1)

Kd (HER3): 0.0321 nM
Substance: FIT019a-Ig HER3 (patritumab)/EGFR (Panitumumab) (bispecific antibody)

EC50 (Raji (human)): 3.25 nM
Substance: Epratuzuman/ Ofatumumab (1:1)
